Test [1] concerns the target endogenously expressed human MSR1 on PMA-treated THP-1 cells (human) (UniProt P21757). The experiment in a line: ECL cell binding, PMA-treated THP-1.
The target in test [2] is human MSR1 endogenously expressed on PMA-differentiated THP-1 cells (human) (UniProt P21757). The experiment in a line: imaging of PMA-differentiated THP-1 cells, 10 ug/mL antibody, Alexa 488 secondary.
human MSR1 endogenously expressed on PMA-differentiated THP-1 cells (human), sequence (P21757 whole entry): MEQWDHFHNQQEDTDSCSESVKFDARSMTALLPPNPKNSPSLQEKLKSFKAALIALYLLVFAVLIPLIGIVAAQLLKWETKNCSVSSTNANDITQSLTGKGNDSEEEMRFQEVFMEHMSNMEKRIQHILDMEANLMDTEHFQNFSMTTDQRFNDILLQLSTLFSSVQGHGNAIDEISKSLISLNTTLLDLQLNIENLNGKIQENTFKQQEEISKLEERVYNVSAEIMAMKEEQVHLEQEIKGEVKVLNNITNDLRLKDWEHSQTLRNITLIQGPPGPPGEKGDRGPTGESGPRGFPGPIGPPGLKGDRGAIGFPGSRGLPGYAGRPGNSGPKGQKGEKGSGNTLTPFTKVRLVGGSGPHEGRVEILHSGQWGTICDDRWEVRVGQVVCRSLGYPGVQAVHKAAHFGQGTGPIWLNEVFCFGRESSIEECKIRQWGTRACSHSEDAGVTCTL

endogenously expressed human MSR1 on PMA-treated THP-1 cells (human), sequence (P21757 whole entry): as above

B1: H1H21234N-N297Q (antibody, human IgG1, V domains shown)
VH: QVQLQESGPGLVKPSETLSLTCTVTGGSISRNYWSWIRQPPGKGLEWIGYIYYSGSIDYNPSLKSRVTISVDTSKNQFSLKLSSMTAADTAVYYCARDRWNWKYGMDVWGQGTTVIVSS
VL: EIVLTQSPGTLSLSPGERATLSCRASQTVRNNYLAWYHQKPGQAPRLLIYGASSRATGIPDRFSGSGSGTDFTLTISRLEPEDFTVYYCHQYGNSPWTFGQGTKMEIKR
Take B1: in test [1], the binding signal ratio to isotype control (11 nM) was 25 fold. In test [2], the Total Binding at 4° C. is 1.95e+06 RFU and the Total Binding at 37° C. is 5.45e+06 RFU.

B2: H1H21234N (antibody, human IgG1, V domains shown)
VH: QVQLQESGPGLVKPSETLSLTCTVTGGSISRNYWSWIRQPPGKGLEWIGYIYYSGSIDYNPSLKSRVTISVDTSKNQFSLKLSSMTAADTAVYYCARDRWNWKYGMDVWGQGTTVIVSS
VL: EIVLTQSPGTLSLSPGERATLSCRASQTVRNNYLAWYHQKPGQAPRLLIYGASSRATGIPDRFSGSGSGTDFTLTISRLEPEDFTVYYCHQYGNSPWTFGQGTKMEIKR
Take B2: the binding signal ratio to isotype control (11 nM) in test [1] came out at 18 fold.

B3: H2aM25695N (antibody, mouse IgG2a, V domains shown)
VH: QVQLQESGPGLVKPSETLSLTCTVTGGSISRNYWSWIRQPPGKGLEWIGYIYYSGSINYNPSLKSRVTISVDMSKNQFSLKLNSVTAADTAVYYCARDRWNWKYGMDVWGQGTTVIVSS
VL: EIVLTQSPGTLSLSPGERATLSCRASQTVRNSYLAWYHQKPGQAPRLLIYGASSRATGIPDRFSGSGSGTDFTLTISRLEPEDFAVYYCQQYGSSYWTFGQGTKMEIKR
As to B3, the binding signal ratio to isotype control (11 nM) in test [1] is 8 fold.

B4: H1H27739P-N297Q (antibody, human IgG1, V domains shown)
VH: EVQLVESGGGLVQPGGSLRLSCTASGFTFSSYAMSWVRQAPGKGLEWVSAISGTGSSTYFTDSVKGRFAISRDNSKNTLYLQMNSLRAEDTAVYYCAKDGEWLSTVTLFDYWGQGTLVTVSS
VL: EIVMTQSPATLSVSPGERATLSCRASQSVSSNLAWYQQKPGQAPRLLIYGASTRATGIPARFSGSGSGTDFTLTISSLQSEDFALYYCQQYFIWPPHPTFGPGTKVDIKR
As for B4, the binding signal ratio to isotype control (11 nM) in test [1] was 9 fold. Besides, in test [2], the Total Binding at 4° C. is 3.7e+06 RFU and the Total Binding at 37° C. is 5.61e+06 RFU.

B5: H1H27747P-N297Q (antibody, human IgG1, V domains shown)
VH: QVQLVESGGAVVQPGRSLRLSCAASGFTFSYYGMHWVRQAPGKGLEWVAVISYDGSKKYYADSVKGRFTISRDNSKNTLYLQMNSLRAEDTAVYYCAKDLTVDFYYGMDVWGQGTTVTVSS
VL: DIQMTQSPSSVSASVGDRVTITCRASQGISSWLAWYQQKPGKAPKLLIYATSSLQSGAPSRFSGSGSGTDFTLTISSLQPEDFATYFCQQANSFPYTFGQGTKLEIKR
Consider B5, for which the binding signal ratio to isotype control (11 nM) in test [1] amounted to 13 fold. In test [2], this molecule gave a Total Binding at 4° C. of 2.52e+06 RFU and a Total Binding at 37° C. of 5.92e+06 RFU.

B6: H1H27754P-N297Q (antibody, human IgG1, V domains shown)
VH: EVQLVESGGGLVQPGGSLRLSCAASGFTFRTYAMTWVRQAPGKGLDWVSAITGDGGNTYYADSVKGRFTISRDNSKNTLYLQMNSLRAEDTAIYYCAKDQRFSFALYYFDYWGQGTLVTVSS
VL: DIQMTQSPSSVSASVGDRVTITCRASQGISSWLAWYQQKPGNAPKLLIYAAFSLQSGVPSRFSGSGSGTDFTLTISSLQPEDFATYYCQQANNFPWTFGQGTKVEIKR
Consider B6, for which the binding signal ratio to isotype control (11 nM) in test [1] is 66 fold. In test [2], this molecule showed a Total Binding at 4° C. of 3.08e+06 RFU and a Total Binding at 37° C. of 7.16e+06 RFU.

B7: H1H21227N-N297Q (antibody, human IgG1, V domains shown)
VH: QVQLVQSGAEVKKPGASVKVSCKVSGYTLTELSIHWVRQVPGKGLEWMGGFDPEEGETIFAQEFRDRVTLTEDTSPDTAYMELSSLKSEDAAVYYCTTPRYCNNGICYDYWGQGTLVTVSS
VL: DIQMTQSPSSLSASVGDRVTITCRASQSISNYLNWYQQKPGKAPKLLIYTASSLQSGVPSRFSGSGSGTDFTLTISSLQTEDFATYYCQQSYSNFPITFGQGTRLEIKR
For B7, the binding signal ratio to isotype control (11 nM) in test [1] stood at 5 fold. In test [2], this molecule showed a Total Binding at 4° C. of 1.8e+06 RFU and a Total Binding at 37° C. of 4.11e+06 RFU.

B8: H1H21227N (antibody, human IgG1, V domains shown)
VH: QVQLVQSGAEVKKPGASVKVSCKVSGYTLTELSIHWVRQVPGKGLEWMGGFDPEEGETIFAQEFRDRVTLTEDTSPDTAYMELSSLKSEDAAVYYCTTPRYCNNGICYDYWGQGTLVTVSS
VL: DIQMTQSPSSLSASVGDRVTITCRASQSISNYLNWYQQKPGKAPKLLIYTASSLQSGVPSRFSGSGSGTDFTLTISSLQTEDFATYYCQQSYSNFPITFGQGTRLEIKR
Regarding B8, the binding signal ratio to isotype control (11 nM) in test [1] came to 7 fold.

B9: H1H21231N (antibody, human IgG1, V domains shown)
VH: EVQLVESGGGLVQPGGSLRLSCAASGFTFSDHYMDWVRQAPGKGLEWVGRTRNKANSHTTEYTASVTGRFTISRDDSRNSLYLQMNSLKTEDTAVYYCVRAGIIGTLFDYWGQGTLVTVSS
VL: DIQMTQFPSSLSASVGDRVTITCRASQSISSFLNWFQQKPGKAPKFLIYAASSLQSGVPSRFSGSGSGTDFTLTISSLQPEDFATYYCQQSYSSPPITFGQGTRLEIKR
Consider B9, for which the binding signal ratio to isotype control (11 nM) in test [1] came to 42 fold.

B10: H1H21231N-N297Q (antibody, human IgG1, V domains shown)
VH: EVQLVESGGGLVQPGGSLRLSCAASGFTFSDHYMDWVRQAPGKGLEWVGRTRNKANSHTTEYTASVTGRFTISRDDSRNSLYLQMNSLKTEDTAVYYCVRAGIIGTLFDYWGQGTLVTVSS
VL: DIQMTQFPSSLSASVGDRVTITCRASQSISSFLNWFQQKPGKAPKFLIYAASSLQSGVPSRFSGSGSGTDFTLTISSLQPEDFATYYCQQSYSSPPITFGQGTRLEIKR
Take B10: the binding signal ratio to isotype control (11 nM) in test [1] came to 45 fold.

B11: H1H21227N-N297D (antibody, human IgG1, V domains shown)
VH: QVQLVQSGAEVKKPGASVKVSCKVSGYTLTELSIHWVRQVPGKGLEWMGGFDPEEGETIFAQEFRDRVTLTEDTSPDTAYMELSSLKSEDAAVYYCTTPRYCNNGICYDYWGQGTLVTVSS
VL: DIQMTQSPSSLSASVGDRVTITCRASQSISNYLNWYQQKPGKAPKLLIYTASSLQSGVPSRFSGSGSGTDFTLTISSLQTEDFATYYCQQSYSNFPITFGQGTRLEIKR
As to B11, the binding signal ratio to isotype control (11 nM) in test [1] worked out at 6 fold.

B12: H2aM21229N (antibody, mouse IgG2a, V domains shown)
VH: EVQLVESGGGLVKPGGSLRLSCAASGFTFSRYSMNWVRQAPGKGLEWVSSISSSSSYIYYGDTVKGRFTISRDNAKKSLYLQMNSLRAEDTAVYYCVRDRGQLVLYFDYWGQGTLVTVSS
VL: DIQMTQSPASLSTSIRDRVTITCRASLSISSFLNWFQQRPGKAPKLLIYVASNLQSGVPSRFSDSGSGTDFTLTISSLQPEDFATYYCQQNYSTPPITFGQGTRLEIK
For the molecule B12, the binding signal ratio to isotype control (11 nM) in test [1] came to 56 fold.

B13: H1H27734P-N297Q (antibody, human IgG1, V domains shown)
VH: EVQLVESRGGLVQPGGSLRLSCAASGFTFSSYAMSWVRQAPGKGLEWVSAISGSGGSTFYADSVKGRFTISRDNSKNTVYLQMNSLRAEDTAVYYCAKALVLRFLEWLGDYWGQGTLVTVSS
VL: DIQMTQSPSTLSASVGDRVTITCRASQSISSWLAWFQQKPGKAPKLLIYKASSLESGVPSRFSGSGSGTEFTLTISSLQPDDFATYYCQQYKSYWTFGQGTKVEIKR
Consider B13, for which, in test [1], the binding signal ratio to isotype control (11 nM) was 21 fold. In test [2], this molecule gave a Total Binding at 4° C. of 483000 RFU and a Total Binding at 37° C. of 1.15e+06 RFU.

B14: H1H27729P-N297Q (antibody, human IgG1, V domains shown)
VH: QVQLVESGGGLVKPGGSLRLSCAASGFIFSDYYMSWIRQAPGKGLEWVSYISSSGTTIYGDSVKGRFTMSRDNAKNSLYLQMNSLRAEDTAVYYCARNYALFDYWGQGTLVTVSS
VL: DIQMTQSPSSLSASVGDRVTITCQASQDISKYLNWYQQKPGKAPKLLIYYTSNLETGVPSRFSGSGSGTDFTFTISSLQPEDIATYYCHQSDYLPFTFGPGTKVDIKR
As for B14, the binding signal ratio to isotype control (11 nM) in test [1] was 8 fold. In test [2], this molecule came in with a Total Binding at 4° C. of 1.93e+06 RFU and a Total Binding at 37° C. of 6.61e+06 RFU.

For the origin of these results see patent publication US20200368361A1.
